# Laboratory results reported in patent US20180193452A1 (NEMOURS FOUNDATION, published 2018).
# B1: FcεRIα extracellular domain mutant K117D (receptor)
# chain: VPQKPKVSLNPPWNRIFKGENVTLTCNGNNFFEVSSTKWFHNGSLSEETNSSLNIVNAKFEDSGEYKCQHQQVNESEPVYLEVFSDWLLLQASAEVVMEGQPLFLRCHGWRNWDVYDVIYYKDGEALKYWYENHNISITNATVEDSGTYYCTGKVWQLDYESEPLNITVIKAPREKYWLQ
# B2: FcεRIα extracellular domain mutant V155A (receptor)
# chain: VPQKPKVSLNPPWNRIFKGENVTLTCNGNNFFEVSSTKWFHNGSLSEETNSSLNIVNAKFEDSGEYKCQHQQVNESEPVYLEVFSDWLLLQASAEVVMEGQPLFLRCHGWRNWDVYKVIYYKDGEALKYWYENHNISITNATVEDSGTYYCTGKAWQLDYESEPLNITVIKAPREKYWLQ
# B3: FcεRIα extracellular domain mutant D159A (receptor)
# chain: VPQKPKVSLNPPWNRIFKGENVTLTCNGNNFFEVSSTKWFHNGSLSEETNSSLNIVNAKFEDSGEYKCQHQQVNESEPVYLEVFSDWLLLQASAEVVMEGQPLFLRCHGWRNWDVYKVIYYKDGEALKYWYENHNISITNATVEDSGTYYCTGKVWQLAYESEPLNITVIKAPREKYWLQ
# B4: FcεRIα extracellular domain mutant Y131A (receptor)
# chain: VPQKPKVSLNPPWNRIFKGENVTLTCNGNNFFEVSSTKWFHNGSLSEETNSSLNIVNAKFEDSGEYKCQHQQVNESEPVYLEVFSDWLLLQASAEVVMEGQPLFLRCHGWRNWDVYKVIYYKDGEALKYWAENHNISITNATVEDSGTYYCTGKVWQLDYESEPLNITVIKAPREKYWLQ
# B5: FcεRIα extracellular domain mutant W87D (receptor)
# chain: VPQKPKVSLNPPWNRIFKGENVTLTCNGNNFFEVSSTKWFHNGSLSEETNSSLNIVNAKFEDSGEYKCQHQQVNESEPVYLEVFSDDLLLQASAEVVMEGQPLFLRCHGWRNWDVYKVIYYKDGEALKYWYENHNISITNATVEDSGTYYCTGKVWQLDYESEPLNITVIKAPREKYWLQ
# B6: FcεRIα extracellular domain mutant W113A (receptor)
# chain: VPQKPKVSLNPPWNRIFKGENVTLTCNGNNFFEVSSTKWFHNGSLSEETNSSLNIVNAKFEDSGEYKCQHQQVNESEPVYLEVFSDWLLLQASAEVVMEGQPLFLRCHGWRNADVYKVIYYKDGEALKYWYENHNISITNATVEDSGTYYCTGKVWQLDYESEPLNITVIKAPREKYWLQ
# Target: T1, purified human IgE (Abcam) (human, UniProt P01854-1 1-428)
# T1 construct: also called free IgE; secreted IgE
# T1 sequence (P01854 other isoform, or with tags, fused parts or gaps): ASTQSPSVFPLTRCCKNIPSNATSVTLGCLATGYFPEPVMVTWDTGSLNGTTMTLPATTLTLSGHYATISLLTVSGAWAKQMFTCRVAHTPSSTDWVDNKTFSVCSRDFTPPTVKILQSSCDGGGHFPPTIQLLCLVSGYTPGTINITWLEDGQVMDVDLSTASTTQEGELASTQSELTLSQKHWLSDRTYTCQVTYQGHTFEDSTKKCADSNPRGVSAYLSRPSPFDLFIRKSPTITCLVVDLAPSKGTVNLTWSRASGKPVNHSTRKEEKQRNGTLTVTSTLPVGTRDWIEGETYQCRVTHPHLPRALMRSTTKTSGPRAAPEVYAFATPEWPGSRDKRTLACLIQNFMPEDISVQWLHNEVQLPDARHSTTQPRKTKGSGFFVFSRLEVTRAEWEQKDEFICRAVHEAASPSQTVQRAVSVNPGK
# Test: not told
row,Binder,fold affinity reduction over wild type [fold]
1,B1,27
2,B2,10
3,B3,2
4,B4,3
5,B5,7
6,B6,5
